The source of these data is patent publication US20200353078A1 (AstraZeneca / MedImmune, published 2020).

Sequences and labels used below:
T1: Human IL-33 Flag®His (human)
T1 construct: Mature IL-33 with C-terminal FLAG 10xHis tag, from E. coli; biotinylated via free cysteines where used biotinylated; also called Mature Human IL-33_FH; human IL-33 FH
T1 chain: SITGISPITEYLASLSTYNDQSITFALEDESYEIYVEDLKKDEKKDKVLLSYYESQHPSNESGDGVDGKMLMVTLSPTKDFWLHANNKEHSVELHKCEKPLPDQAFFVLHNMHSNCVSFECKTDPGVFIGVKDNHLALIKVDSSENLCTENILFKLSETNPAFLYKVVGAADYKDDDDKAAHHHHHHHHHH

T2: His10/Avi Human IL33-01 (human)
T2 construct: Wild type mature IL-33 with N-terminal 10xHis, Avitag and Factor Xa site; biotinylated by BirA on the Avitag where used biotinylated; reduced form unless treated; also called N-terminal His Avi IL-33; His-Avi human IL-33 wild type
T2 chain: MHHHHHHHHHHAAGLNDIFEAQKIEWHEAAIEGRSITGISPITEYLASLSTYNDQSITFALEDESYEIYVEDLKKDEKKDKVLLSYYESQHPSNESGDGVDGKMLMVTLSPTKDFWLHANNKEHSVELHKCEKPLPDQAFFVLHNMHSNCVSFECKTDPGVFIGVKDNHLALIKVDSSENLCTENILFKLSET

T3: His10/Avi Cyno IL-33 (cynomolgus monkey)
T3 construct: also called Cynomolgus 10His Avitag IL-33; biotinylated His Avi cynomolgus IL-33
T3 chain: T2 chain with E77K, N94S, H118Q, M146R, H147S, S148F, S177Y, C182G, T183S, T193I

T4: Full-length human IL-33 (amino acids 1-270), HEK293-EBNA cell lysate (human, UniProt O95760 1-270)
T4 sequence (looked up): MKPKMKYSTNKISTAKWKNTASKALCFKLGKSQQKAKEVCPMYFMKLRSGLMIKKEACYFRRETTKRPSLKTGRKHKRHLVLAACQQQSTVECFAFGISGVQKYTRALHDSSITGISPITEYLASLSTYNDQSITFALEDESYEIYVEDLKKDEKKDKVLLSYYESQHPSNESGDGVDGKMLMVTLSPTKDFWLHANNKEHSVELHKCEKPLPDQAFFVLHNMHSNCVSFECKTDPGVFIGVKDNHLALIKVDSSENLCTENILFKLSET

B1: IL330020 IgG1 (antibody, V domains shown)
VH: QVQLVQSGAEVKKPGASVKVSCKASGYTFTSYGISWVRQAPGQGLEWMGWISDYQGYTKYAEKFQGRVTMTTDTSTNTAYMELRSLRSDDTAVYYCARLYSSGWIRQYHFDYWGRGTLVTVSS
VL: SYELTQPPSVSVSPGQTASITCSGDNLKDKYVSWYQQKPGQAPVLVLYQDRKRPSGIPERFSGSNSGNTATLTISGTQAMDEADYYCQAWDSGTAFGGGTKVTVL
notes: Human IgG1, lambda constant
B2: 33_640087-7 IgG1 (antibody, V domains shown)
VH: EVQLLESGGGLVQPGGSLRLSCAASGFTFSSYAMSWVRQAPGKGLEWVSGISAIDQSTYYADSVKGRFTISRDNSKNTLYLQMNSLRAEDTAVYYCARQKFMQLWGGGLRYPFGYWGQGTMVTVSS
VL: SYVLTQPPSVSVSPGQTASITCSGEGMGDKYAAWYQQKPGQSPVLVIYRDTKRPSGIPERFSGSNSGNTATLTISGTQAMDEADYYCGVIQDNTGVFGGGTKVTVL
notes: IgG1
B3: 33_640201 IgG1 (antibody, V domains shown)
VH: B2 VH with G50S, S52D, D55S, Q56S, A97S
VL: B2 VL with G26R, R49Q, M80V, I90L, Q91K, D92Q, N93D
notes: IgG1; also called ZZ1JMY-H09
B4: 33_640076-4 IgG1 (antibody, V domains shown)
VH: B2 VH with Q99D, K100L, F101W, Q103E, L104N, G106V
VL: B2 VL with G26R, G88E, I90K, Q91K, D92S, N93D
notes: IgG1
B5: 33_640086-6 IgG1 (antibody, V domains shown)
VH: B2 VH with A53G, Q56T, Q99D
VL: B2 VL with G26R, G88E, I90K, Q91V, D92K, N93D
notes: IgG1
B6: 33_640082-6 IgG1 (antibody, V domains shown)
VH: B2 VH with A53G, Q56T
VL: B2 VL with G26R, I90L, Q91K, D92Q, N93D
notes: IgG1
B7: 33_640082-7 IgG1 (antibody, V domains shown)
VH: B2 VH
VL: B2 VL with G26R, I90L, Q91K, D92Q, N93D
notes: IgG1
B8: 33_640084-2 IgG1 (antibody, V domains shown)
VH: B2 VH with T28A, G50A, A53G, I54S, D55G, Q56G
VL: B2 VL with G26R, G88Q, I90W, Q91R, N93D, T94S, G95P, V96I
notes: IgG1
B9: 33_640237-2 IgG1 (antibody, V domains shown)
VH: EVQLLESGGGLVQPGGSLRLSCAASGFTFSSYAMSWVRQAPGKGLEWVSGIADDFTSTYYADPVKGRFTISRDNSKNTLYLQMNSLRAEDTAVYYCARDLWMMNYAGGLRYPFGYWGQGTMVTVSS
VL: B2 VL with G26R, I90L, Q91K, D92Q, N93D

Substitutions are numbered along the chain they refer to.

In one test the target is T1, Human IL-33 Flag®His. The experiment in a line: HTRF competition, IgG titrated against biotinylated human ST2-Fc. As to the method: The ability of anti-IL-33 antibodies to inhibit the binding of FLAG®-His tagged IL-33 to the ST2 receptor was assessed in a biochemical HTRF® (Homogeneous Time-Resolved Fluorescence, Cisbio International) competition assay, the principles of which are described above.
Activity of purified IgG preparations were determined by competing a dilution series of the purified IgG against biotinylated human or mouse ST2.Fc for binding to FLAG® His-tagged human, cynomolgus or mouse IL-33.
Purified or unpurified anti-IL-33 antibody samples were tested for inhibition of FLAG®-His tagged IL-33 binding ST2-Fc by adding 10 microlitres of each dilution of antibody test sample to a 384 well low volume assay plate (Costar 3676). Next, a solution containing 4 nM biotinylated human or mouse ST2-Fc and 20 nM streptavidin XL665 detection (Cisbio International, 611SAXLB) was prepared and 5 microlitres of the mix added to the assay plate. This was followed by the addition of 5 microlitres of a solution containing 1.2 nM FLAG®-His tagged human, cynomolgus or mouse IL-33 combined with 1.72 nM anti-FLAG® cryptate detection (Cisbio International, 61FG2KLB). All dilutions were performed in assay buffer comprised of Dulbeccos PBS (Invitrogen, 14190185) containing 0.8 M potassium fluoride (BDH 103444T) and 0.1% BSA (Sigma A9576). Assay plates were incubated for 2 hour at room temperature followed by 16 hour at 4° C. before reading time resolved fluorescence at 620 nm and 665 nm emission wavelengths using an EnVision plate reader (Perkin Elmer).
The IC50 is the point on the concentration scale where inhibition reaches its midpoint. Read a high IC50 as a need for much substance. On to B1, for which the IC50 was determined as 40 nM.

Another test addresses T2, His10/Avi Human IL33-01. The experiment in a line: HTRF epitope competition, IgG titrated; competitor DyLight labelled 33_640117 IgG; 1 hour. How it is done:
(§1) As the epitope competition assay utilising 33_640027 reached its limit of sensitivity, an assay using 33_640117 was used for testing purified scFv samples. The assay was essentially as described for the 33v20064 competition assay with the following modifications: 2.5 nM DyLight labelled 33_640117 was prepared and 2.5 microlitres added to the assay plates. This was followed by the addition of 2.5 microlitres of a solution containing 0.12 nM biotinylated human IL-33-01 combined with 0.75 nM streptavidin cryptate detection (Cisbio International, 610SAKLB) for the human assay or a solution containing 0.24 nM biotinylated cynomolgus IL-33 combined with 1.5 nM streptavidin cryptate detection (Cisbio International, 610SAKLB) for the cynomolgus assay. Fluorescence was read after one hour and overnight incubation.
(§2) The ability of anti-IL-33 antibodies to inhibit the binding of biotinylated His Avi human IL-33 or cynomolgus His Avi IL-33 to the DyLight labelled 33_640117 IgG was assessed in a biochemical HTRF® (Homogeneous Time-Resolved Fluorescence, Cisbio International) competition assays as described above.
(In general: Time-resolved FRET reads energy transfer from a long-lived donor to a nearby acceptor.)
B2 had an IC50 of 0.1 nM. In other words, the sub-nanomolar range.
The molecule B3 gave an IC50 of 0.2 nM.
B4 returned an IC50 of 0.1 nM.
Same read-out and setting: then B5, with 0.1 nM.
B6 had an IC50 of 0.1 nM.
On the same count and under the same terms, then B7, with 0.1 nM; and B8, with 0.3 nM.

The target of another test is T3, His10/Avi Cyno IL-33. The test is described as above. As to the method:
as §1, §2
B2 came in with an IC50 of 0.2 nM.
On the same count and under the same terms, the same measure for B3: 0.3 nM; for B4: 0.6 nM; for B5: 0.2 nM.
As to B6, the IC50 was 0.2 nM.
Molecule B7 returned an IC50 of 0.2 nM.
As to B8, the IC50 was found to be 0.8 nM.

The target of the next test is T1, Human IL-33 Flag®His. Put plainly: cell-based or functional assay.
For the molecule B1, the “IC50, human ST2 transfected HeLa NFkB luciferase reporter assay” value worked out at 147 nM.

The next test has as its target T4, Full-length human IL-33 (amino acids …). Put plainly: cell-based or functional assay.
B2: the “IC50, Huvec IL-8 assay vs. full length IL-33 cell lysate” value came out at 0.073 nM.
As to B3, the “IC50, Huvec IL-8 assay vs. full length IL-33 cell lysate” value was determined as 0.101 nM.
Still for that read-out and setting: the same measure for B4: 0.095 nM.
Still for that read-out and setting: the same measure for B5: 0.081 nM; for B6: 0.097 nM; for B7: 0.095 nM.
In the case of B8, the “IC50, Huvec IL-8 assay vs. full length IL-33 cell lysate” value was found to be 0.132 nM.

The target of another test is T2, His10/Avi Human IL33-01. Put plainly: cell-based or functional assay.
In the case of B2, the “IC50, Huvec IL-8 assay vs. His Avi IL-33” value was determined as 0.025 nM.
In the case of B3, the “IC50, Huvec IL-8 assay vs. His Avi IL-33” value amounted to 0.046 nM.
The same measure, in the same setting: then B4, with 0.032 nM; and B5, with 0.026 nM.
On the same count and under the same terms, the same measure for B6: 0.03 nM; for B7: 0.031 nM; for B8: 0.036 nM.

Another test deals with T2, His10/Avi Human IL33-01. Put plainly: HTRF epitope competition, IgG titrated; competitor DyLight labelled 33_640117 IgG; overnight. As to the method:
as §1, §2
For the molecule B2, the IC50 is 0.1 nM.
With B3, the IC50 worked out at 0.2 nM.
Still for that read-out and setting: the same measure for B4: 0.1 nM; for B5: 0.1 nM; for B6: 0.1 nM.
Same read-out and setting: the same measure for B7: 0.1 nM; for B8: 0.3 nM.

Another test concerns the target T2, His10/Avi Human IL33-01. Put plainly: cell-based or functional assay. The source holds these as a separate data set.
As for B9, the “IC50 (nM) vs. His Avi IL-33, Huvec IL-8 assay” value is 0.105 nM.
B2: the “IC50 (nM) vs. His Avi IL-33, Huvec IL-8 assay” value was 0.041 nM.
